Experimental findings from patent US20060228350A1 (AstraZeneca / MedImmune, published 2006) are described below.

The target in experiment [1] is Human EphA2-Fc fusion protein (human EphA2 fused with the Fc portion of a human IgG1) (human) (UniProt P29317). Nature of the experiment: single point capture ELISA, 500 ng goat anti-human Fab; same plate as VH-233/VL-8G7.
For experiment [2] the target is unchanged. Nature of the experiment: single point capture ELISA, 500 ng goat anti-human Fab; same plate as VH-7E8/VL-8G7.
The target is the same in experiment [3]. As to the kind of experiment: single point capture ELISA, 500 ng goat anti-human Fab; same plate as VH-233/VL-12C8. In general terms: ELISA stands for enzyme-linked immunosorbent assay.
Experiment [4] has the same target. Nature of the experiment: single point capture ELISA, 500 ng goat anti-human Fab; same plate as VH-2G6/VL-12C8.
The target is the same in experiment [5]. As to the kind of experiment: single point capture ELISA, 500 ng goat anti-human Fab; same plate as VH-6H11/VL-8G7.
The target is the same in experiment [6]. As to the kind of experiment: single point capture ELISA, 20 ng goat anti-human Fab, biotinylated EphA2-Fc 300 ng/well.
For experiment [7] the target is unchanged. Nature of the experiment: single point capture ELISA, 100 ng goat anti-human Fab, biotinylated EphA2-Fc 300 ng/well.
For experiment [8] the target is unchanged. As to the kind of experiment: single point capture ELISA, 500 ng goat anti-human Fab, biotinylated EphA2-Fc 300 ng/well.
For experiment [9] the target is unchanged. The experiment is described as above. The source holds these as a separate data set.
Experiment [10] has the same target. The description is as above. This is another data set of the same source.
For experiment [11] the target is unchanged. As to the kind of experiment: single point capture ELISA, 1 µg goat anti-human Fd, biotinylated EphA2-Fc 300-600 ng/well.
For experiment [12], the target named is T1, Human EphA2-Fc fusion protein (human EphA2 fused with the Fc portion of a human IgG1) (human, UniProt P29317 24-534, limits assumed).
T1 construct: also called biotinylated human EphA2-Fc; not shown: Fc portion of a human IgG1
T1 sequence (P29317 24-534 limits assumed): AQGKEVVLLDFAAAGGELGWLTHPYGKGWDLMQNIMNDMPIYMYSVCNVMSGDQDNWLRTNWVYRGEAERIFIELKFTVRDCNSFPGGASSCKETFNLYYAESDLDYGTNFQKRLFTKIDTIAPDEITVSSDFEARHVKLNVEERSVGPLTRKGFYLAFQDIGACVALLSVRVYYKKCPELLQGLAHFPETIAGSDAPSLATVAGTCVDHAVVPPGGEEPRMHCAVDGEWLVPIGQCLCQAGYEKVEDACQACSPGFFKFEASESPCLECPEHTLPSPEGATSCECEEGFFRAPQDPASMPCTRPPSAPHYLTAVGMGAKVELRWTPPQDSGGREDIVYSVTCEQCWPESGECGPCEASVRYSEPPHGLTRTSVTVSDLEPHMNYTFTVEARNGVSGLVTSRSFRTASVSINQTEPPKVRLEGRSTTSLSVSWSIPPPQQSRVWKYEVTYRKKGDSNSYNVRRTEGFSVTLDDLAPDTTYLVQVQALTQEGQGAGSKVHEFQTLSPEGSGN
Nature of the experiment: SPR (BIAcore 3000), EphA2-Fc coupled to CM5 chip (~500 RU), IgG in solution, koff/kon. As for the experimental part:
(§1) EphA2-Fc was coupled to the dextran matrix of a CM5 sensor chip (Pharmacia Biosensor) using an Amine Coupling Kit as described (B. Johnsson et al., 1991, Anal. Biochem. 198: 268-277) at a surface density of approximately 500 RU. IgGs were diluted in 0.01 M HEPES pH 7.4 containing 0.15 M NaCl, 3 mM EDTA and 0.005% P20. All subsequent dilutions were made in the same buffer. All binding experiments were performed at 25° C. with IgG concentrations typically ranging from 100 nM to 0.2 nM at a flow rate of 75 μL/min; data were collected for approximately 25 min and two 30-sec pulse of 1M NaCl, 50 mM NaOH was used to regenerate the surfaces. IgGs were also flowed over an uncoated cell and the sensorgrams from these blank runs subtracted from those obtained with EphA2-Fc-coupled chips. Data were fitted to a 1:1 Langmuir binding model. This algorithm calculates both the kₒₙ and the koff, from which the apparent equilibrium dissociation constant, KD, is deduced as the ratio of the two rate constants (koff/kₒₙ).

For experiment [13], the target named is T1, Human EphA2-Fc fusion protein (human …). As to the kind of experiment: SPR (BIAcore 3000), EphA2-Fc coupled to CM5 chip (~500 RU), IgG in solution, 1:1 Langmuir fit. The method, then:
as §1
In general terms: Surface plasmon resonance follows binding to a sensor surface in real time, without labels.

For experiment [14] the target is unchanged. As to the kind of experiment: SPR (BIAcore 3000), EphA2-Fc coupled to CM5 chip, IgG in solution, koff/kon. The method, then: as §1, with “IgGs” for “EphA2-Fc was coupled to the dextran matrix of a CM5 sensor chip (Pharmacia Biosensor) using an Amine Coupling Kit as described (B. Johnsson et al., 1991, Anal. Biochem. 198: 268-277) at a surface density of approximately 500 RU. IgGs”, “one 1-min” for “two 30-sec”, “1 M” for “1M”

The target is the same in experiment [15]. As to the kind of experiment: SPR (BIAcore 3000), EphA2-Fc coupled to CM5 chip, IgG in solution, 1:1 Langmuir fit. As for the experimental part:
as §1, with “IgGs” for “EphA2-Fc was coupled to the dextran matrix of a CM5 sensor chip (Pharmacia Biosensor) using an Amine Coupling Kit as described (B. Johnsson et al., 1991, Anal. Biochem. 198: 268-277) at a surface density of approximately 500 RU. IgGs”, “one 1-min” for “two 30-sec”, “1 M” for “1M”

Experiment [16] has the same target. Nature of the experiment: BIAcore, human IgG1 format on immobilized EphA2-Fc.

Human EphA2-Fc fusion protein (human EphA2 fused with the Fc portion of a human IgG1) (human), sequence (P29317 24-534 limits assumed): as above

With irrelevant antibody (MEDI-493), the OD450 (background signal) in experiment [1] stood at 0.2 OD450; in experiment [2] it was 0.2 OD450; in experiment [3], 0.1 OD450; in experiment [4] it was 0.3 OD450; in experiment [5], 0.2 OD450; in experiment [6], 0.1 OD450. In addition, the OD450 (background signal) in experiment [7] was 0.1 to 0.4 OD450; in [8], 0.06 to 0.2 OD450; in experiment [9], 0.3 OD450; in experiment [10], 0.07 to 0.1 OD450.

“irrelevant antibody (background control of Example 2)”: in experiment [11], the OD450 (background signal) is 0.3 OD450.

B1: mAb EA2 (mouse anti-human EphA2 monoclonal antibody) (antibody, V domains shown)
VH: DVKLVESGGGLVKPGGSLKLSCAASGFTFSSYTMSWVRQTPEKRLEWVATISSGGTYTYYPDSVKGRFTISRDNAKNTLYLQMSSLKSEDTAMYYCTREAIFTYWGQGTLVTVSA
VL: DIKMTQSPSSMYASLGERVTITCKASQDINNYLSWFQQKPGKSPKTLIYRANRLVDGVPSRFSGSGSGQDYSLTISSLEYEDMGIYYCLKYDEFPYTFGGGTKLEIK
notes: Murine hybridoma antibody; also called EA2 (murine); parental mAb EA2
With B1, in [12], the Kd (in general, the equilibrium constant for the complex coming apart) worked out at 5.94 nM. Besides, in experiment [13], the koff (commonly the first-order rate constant of dissociation) was 0.00307 s⁻¹ and the kon – broadly, a measure of how fast the partners come together – worked out at 517000 M⁻¹ s⁻¹.

B2: mAb B233 (mouse anti-human EphA2 monoclonal antibody) (antibody, V domains shown)
VH: EVKLVESGGGLVQPGGSLSLSCAASGFTFTDYSMNWVRQPPGKALEWLGFIRNKANDYTTEYSASVKGRFTISRDNSQSILYLQMNALRAEDSATYYCVRYPRYHAMDSWGQGTSVTVSS
VL: DIVLTQSPATLSVTPGDSVNLSCRASQSISNNLHWYQQKSHESPRLLIKYVFQSISGIPSRFSGSGSGTDFTLSINSVETEDFGMYFCQQSNSWPLTFGAGTKLELK
notes: Murine hybridoma antibody; also called B233 (murine); parental mAb B233
B2 displayed a Kd in [14] of 0.4 nM. In experiment [15], this molecule returned a koff of 0.00011 s⁻¹ and an on-rate (kon) of 280000 M⁻¹ s⁻¹.

B3: VH-233/VL-233 IgG (chimaeric form of mAb B233, full length human IgG1) (antibody, V domains shown)
VH: EVKLVESGGGLVQPGGSLSLSCAASGFTFTDYSMNWVRQPPGKALEWLGFIRNKANDYTTEYSASVKGRFTISRDNSQSILYLQMNALRAEDSATYYCVRYPRYHAMDSWGQGTSVTVSS
VL: DIVLTQSPATLSVTPGDSVNLSCRASQSISNNLHWYQQKSHESPRLLIKYVFQSISGIPSRFSGSGSGTDFTLSINSVETEDFGMYFCQQSNSWPLTFGAGTKLELK
notes: Human IgG1 / human kappa constant regions, expressed in HEK 293 cells; also called VH-B233/VL-B233 (chimeric); chimaeric B233
Consider B3, for which the dissociation constant Kd in [14] is 0.3 nM. In [15], the koff was 8e-05 s⁻¹ and the kon amounted to 240000 M⁻¹ s⁻¹.

B4: VH-6H11/VL-8G7 (humanized) full length human IgG1 (antibody, V domains shown)
VH: EVQLVESGGGLVQPGGSLRLSCAASGFTFSDYSMNWVRQAPGKGLEWVAFIRNKANDYTTEYSASVKGRFTISRDNSKNTLYLQMNSLRAEDTAMYYCARYPRYHAMDSWGQGTLVTVSS
VL: EIVLTQSPATLSVSPGERATLSCRASQSISNNLHWYQQKPGKAPKSLIYYVFQSISGVPSRFSGSGSGTDFTLTINSLEAEDAATYYCQQSNSWPLTFGGGTKVDIK
notes: Human IgG1 / human kappa, expressed in HEK 293 cells
Turning to B4, in [16], the “fold avidity decrease against parental mAb B233” value (“fold avidity decrease” below) stood at 6 fold. In [14], this molecule gave a Kd of 1.9 nM. In experiment [15], this molecule had a koff of 0.00018 s⁻¹ and a kon of 96000 M⁻¹ s⁻¹.

B5: VH-7E8/VL-8G7 (humanized) full length human IgG1 (antibody, V domains shown)
VH: EVQLVESGGGLVKPGGSLRLSCAASGFTFSDYSMNWVRQASGKGLEWVGFIRNKANDYTTEYSASVKGRFTISRDDSKNTLYLQMNSLKTEDTAVYYCTTYPRYHAMDSWGQGTLVTVSS
VL: EIVLTQSPATLSVSPGERATLSCRASQSISNNLHWYQQKPGKAPKSLIYYVFQSISGVPSRFSGSGSGTDFTLTINSLEAEDAATYYCQQSNSWPLTFGGGTKVDIK
notes: as for B4
With B5, the “fold avidity decrease” value in experiment [16] was found to be 160 fold. The dissociation constant Kd in [14] turned out to be 48 nM. Further, in [15], the koff amounted to 0.00045 s⁻¹ and the kon worked out at 9300 M⁻¹ s⁻¹.

B6: VH-2G6/VL-12C8 (humanized) full length human IgG1 (antibody, V domains shown)
VH: EVQLVESGGGVVRPGGSLRLSCAASGFTVSDYSMNWVRQAPGKGLEWIGFIRNKANDYTTEYSASVKGRFTISRDDSKNTLYLQMNSLKTEDTAVYYCTTYPRYHAMDSWGQGTMVTVSS
VL: AIQLTQSPSSLSASVGDRVTITCRASQSISNNLHWYLQKPGQSPQLLIYYVFQSISGVPSRFSGSGSGTDFTLTISSLQPEDFATYYCQQSNSWPLTFGGGTKLEIK
notes: as for B4
On to B6, for which the “fold avidity decrease” value in experiment [16] worked out at 10 fold. Besides, the affinity in experiment [14], expressed as Kd, was 3 nM. In experiment [15], this molecule returned a koff of 0.00019 s⁻¹ and a kon of 64000 M⁻¹ s⁻¹.

B7: VH-4H5/VL-4H5 full length human IgG1 (antibody, V domains shown)
VH: QVQLLESGGGLVQPGGSLRLSCAASGFTFSSYTMSWVRQAPGQALEWMGTISSGGTYTYYPDSVKGRFTISRDNAKNSLYLQMNSLRAEDTAVYYCAREAIFTYWGRGTLVTVSS
VL: DIQLTQSPSSLSASVGDRVTITCKASQDINNYLSWYQQKPGQAPRLLIYRANRLVDGVPDRFSGSGYGTDFTLTINNIESEDAAYYFCLKYDVFPYTFGQGTKVEIK
notes: as for B4
Take B7: in experiment [16], the “fold avidity increase against parental mAb EA2” value was 90 fold. The molecule further returned a dissociation constant Kd in experiment [12] of 0.067 nM. Besides, in experiment [13], the koff was found to be 6.6e-05 s⁻¹ and the kon was 980000 M⁻¹ s⁻¹.

B8: VH-4H5/VL-“corrected” 4H5 full length human IgG1 (antibody, V domains shown)
VH: QVQLLESGGGLVQPGGSLRLSCAASGFTFSSYTMSWVRQAPGQALEWMGTISSGGTYTYYPDSVKGRFTISRDNAKNSLYLQMNSLRAEDTAVYYCAREAIFTYWGRGTLVTVSS
VL: DIQLTQSPSSLSASVGDRVTITCKASQDINNYLSWYQQKPGQAPRLLIYRANRLVDGVPDRFSGSGYGTDFTLTINNIESEDAAYYFCLKYDEFPYTFGQGTKVEIK
notes: Human IgG1 / human kappa, expressed in HEK 293 cells; also called 4H5 corrected
B8: in [16], the “fold avidity increase against parental mAb EA2” value amounted to 4 fold. Also, in experiment [12], binding was put at a Kd of 1.4 nM. In experiment [13], this molecule showed a koff of 0.00105 s⁻¹ and an on-rate constant (kon) of 750000 M⁻¹ s⁻¹.
